Measured values published in US7741066B2, “Phosphorylated p68 RNA helicase as a marker for cancer and cancer metastasis” (priority 2005, dated 2010).

Tests used:
[1] = tested on: p68 RNA helicase tyrosine phosphorylation; test: Tyrosyl phosphorylation of p68 RNA helicase in cancer cells after treatment (immunoprecipitation with PAbp68, Western Blot with p-tyr-100); type: cell-based, human
Source text: After the tissue samples were homogenized, the protein extracts were made from the homogenized sample. The tissue was screened for phosphorylated p68 RNA helicase in two steps. In the first step, the polyclonal antibody PAbp68 was used to isolate p68 RNA helicase from the extracts. In the second step, the antibody p-tyr-100 was used to detect the phosphorylated p68 RNA helicase from the total isolated p68 RNA helicase by the Western Blot. The intensity of the Western Blot signal by the antibody p-tyr-100, in the second step, corresponds to the level of phosphorylated p68 RNA helicase in the sample.
The Western Blots were carried out using antibody p68-rgg (top panel in FIG. 3A-3D) and antibody p-tyr-100 (bottom panel in FIGS. 3A-3D). The p68 RNA helicase was immunoprecipitated by antibody PAbp68.

[2] = tested on: p68 RNA helicase threonine phosphorylation; test: Threonine phosphorylation of p68 RNA helicase in cancer cells after treatment (immunoprecipitation, Western Blot with 14B3); type: cell-based, human; conditions: for threonine phosphorylation of p68 RNA helicase upon treatment: six different cancer cell lines, Western Blot 14B3; for threonine phosphorylation of p68 RNA helicase upon longer treatment: 30 minutes treatment, data not shown
Experimental: The presence of phosphorylated p68 RNA helicase in cultured cells or tissue samples was examined using immunoprecipitation followed by Western Blots. Immunoblotting also was also performed with a monoclonal antibody against p68 RNA helicase to show the equal amounts or levels of p68 (phosphorylated and unphosphorylated) loaded in the western blotting. Such Western Blots include the use of antibodies to phosphorylated p68 RNA helicase and sodium dodecyl sulphate polyacrylamide gel electrophoresis (SDS-PAGE). Immunoblotting also was performed with a monoclonal antibody against p68 RNA helicase to show the presence of a positive control protein in tumor and normal samples and to indicate that there was no evidence of protein degradation in any of the tissue samples.
A polyacrylamide gel system was employed for separation of proteins. The cell nuclear extracts (80 μl) were diluted to 200 μl with RIPA buffer (160 mM NaCl, 20 mM Tris-HCl, pH 7.5, 1 mM EDTA, 1 mM EGTA, 1 mM DTT, 0.1% Triton X-100, 1% sodium deoxycholate, 0.1% SDS, 1 mM sodium vanadate, and 1 mM PMSF). The antibody PAbp68 then was added to the mixture. The solution subsequently was incubated at 4° C. for 4 hours. Protein A agarose bead slurry (40 μl) then was added and the mixture underwent rotation. The beads were recovered and washed with 5×600 μl RIPA buffer with 0.08% SDS. The precipitated proteins were analyzed by SDS-PAGE followed by Western Blot.
The Western Blot analysis was performed with a commercially available ECL Western Blot and detection kit (Amersham Biosciences). The supernatant from the culture medium of hybridoma cells P68-rgg were used in the blotting experiments at a 5:1 dilution. The polyclonal antibody PAbp68 was used in 1:3000 dilution. The antibodies, PY100 and 14B3 were used with 1:2000 dilution.
The phosphorylation of p68 RNA helicase was investigated using HeLA S3, A549, HEL299, CCD-112CoN, HepG2, and MCF-7 cells. The HeLa S3 and A549 cells were grown in Ham's F12K medium supplemented with 10% fetal bovine serum. The HEL299, CCD-112CoN, HepG2, and MCF-7 cells were maintained in minimum essential medium supplemented with 10% fetal bovine serum. The culture medium contained 2 mM L-glutamine and Earle's BSS adjusted to contain 1.5 g/l of sodium bicarbonate, 0.1 mM of non-essential amino acids, and 1.0 mM sodium pyruvate. The Caco-2 cells were grown in a similar medium condition to that of HEL299 cells but supplemented with 20% fetal bovine serum. The RPMI 1788 and K562 cells were grown in Iscove's modified Dulbecco's medium supplemented with 10% fetal bovine serum. The HEK293 and Hs 578Bst cells were grown in modified Dulbecco's medium containing 10% fetal bovine serum. All cell culture medium contained penicillin (100 U/ml) and streptomycin (100 μg/ml). The cells were grown to 90% confluency prior to performing any experiment.
The phosphorylations of p68 RNA helicase responded differently to different anticancer treatments.
FIGS. 2A and 2B show Western Blots of immunoprecipitated cellular p68 RNA helicase from different cancer cells (indicated). The immuno-blots were carried out using antibody p68-rgg (FIG. 2, top panel in A and B), antibody p-tyr-100 (middle panel in A and B), and antibody 14B3 (FIG. 2, bottom panel in A and B). The + and − represent with or without TNF-α or TRAIL treatments. Tyrosine dephosphorylation and threonine phosphorylation of p68 RNA helicase was present in cancer cells upon the panel (A) TNF-α or panel (B) TRAIL treatments.

[3] = six different cancer cell lines (A549, Caco-2, HepG2, K562, MCF-7, HeLa S3), Western Blot p-tyr-100

| Compound | tyrosine phosphorylation of p68 RNA helicase upon treatment ([1]; MCF-7 breast cancer cells) | threonine phosphorylation of p68 RNA helicase upon treatment [2] | tyrosine phosphorylation of p68 RNA helicase upon treatment [1, 3] | threonine phosphorylation of p68 RNA helicase upon longer treatment [2] | tyrosyl phosphorylation of p68 RNA helicase upon treatment ([1]; HeLa cells) |
| --- | --- | --- | --- | --- | --- |
| Cc1ccc(NC(=O)c2ccc(CN3CCN(C)CC3)cc2)cc1Nc1nccc(-c2cccnc2)n1 [STI-571, reference compound] | decreases in the tyrosine phosphorylation level rather than complete dephosphorylation | – | – | – | – |
| CC(=O)O[C@H]1C(=O)[C@@]2(C)[C@H]([C@H](OC(=O)c3ccccc3)[C@]3(O)C[C@H](OC(=O)[C@H](O)[C@@H](NC(=O)c4ccccc4)c4ccccc4)C(C)=C1C3(C)C)[C@]1(OC(C)=O)CO[C@@H]1C[C@@H]2O [TAXOL®, reference compound] | – | Threonine phosphorylation was not detected | tyrosyl dephosphorylation was not observed | – | – |
| COc1cc([C@@H]2c3cc4c(cc3[C@@H](O[C@@H]3O[C@@H]5CO[C@@H](C)O[C@H]5[C@H](O)[C@H]3O)[C@H]3COC(=O)[C@H]23)OCO4)cc(OC)c1O [etoposide, reference compound] | – | Threonine phosphorylation was not detected | tyrosyl dephosphorylation was not observed | – | – |
| TNF-α | – | resulted in phosphorylation of p68 at threonine | led to the dephosphorylation of p68 at tyrosine residue(s) | quickly dephosphorylated again | could be dephosphorylated |
| TRAIL: TNF Related Apoptosis-Inducer Ligand | – | resulted in phosphorylation of p68 at threonine | led to the dephosphorylation of p68 at tyrosine residue(s) | quickly dephosphorylated again | – |
